# B1: TPR t1 (parent)
# chain: GACCAAUCUGCCCUCAGAGCUCGAGAACAUCUUCGGAUGCAGAGGAGGCAGGCUUCGGUGGCGCGAUAGCGCCAACGUCCUCAACCUCCAAUGCAUCCCACCACAUGAUGAUGCCUGAAGAGCCUUGGUUUUUUG
# Variants of: B1
# Experiment: polymerase ribozyme fitness, log enrichment relative to wild type (log ratio); higher = more active; in vitro selection for triplet polymerase activity
# Procedure, shortened: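 Each subunit of a heterodimeric triplet polymerase ribozyme was represented by a PCR-built, transcribed mutant library that underwent triplicate single-round in vitro selection with frozen incubation at −7 °C. Extended constructs were recovered by gel excision, streptavidin-bead capture and RT-PCR, and Illumina sequencing of input and output libraries kept genotypes with ≥10 input reads and ≥1 read per output. Fitness is the logarithm of genotype enrichment relative to wild-type enrichment, from inverse-variance-weighted replicate averages, with a logarithm base of 2.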
row,Variant,polymerase ribozyme fitness (log ratio)
1,C11G C40U G69U A74G C79A C115A,-4
2,C11G A37U G60U G77C,-1.22
3,C11A C85U,-1.28
4,C11G C64A A111U U130G,-6.86
5,C11G C101A,-0.692
6,C11A G61U,-1.39
7,C11A G61A,-1.4
8,C11G G35A G117U,-6.34
9,C11A U33G C56G A103G G122A,-6.79
10,C11A C70G C80U C97G C124A,-5.66
11,C11G G93C A105U A119U,-3.55
12,C11A C72G C79A C85A A121U,-1.86
13,C11A U96A,-2.53
14,C11G A37C,-0.179
15,C11A G77A A84U G122A,-1.06
16,C11G G44A U133G,-1.89
17,C11A G36A A50G G113C,-4.17
18,C11G C70A G127C,-2.16
19,C11G C49A C62A,-0.975
20,C11G C72U,0.401
21,C11G A26C G60U C97U G120U U132A,-3.92
22,C11G C115A,0.0312
23,C11A G39U G71A,-2.63
24,C11G G19A A37U C85G,-3.64

row,Variant,polymerase ribozyme fitness (log ratio)
1,C11G G52U C62G U116A,-5.35
2,C11G A37G G69C C115G,-3.53
3,C11G C104A U130A,-2.13
4,C11G G17C U55G C73U,-3.54
5,C11G A18U C86U C124U,-0.586
6,C11A G61A C62A C80U G113C,-7.76
7,C11G C114G,-2.38
8,C11G C114U,-0.754
9,C11G C12G G48A G120C,0.765
10,C11A C85A C114A C123U,-2.71
11,C11A G113U G122U,-2.8
12,C11G G42U C104A A121C,-3.09
13,C11A G45C C62U,-2.56
14,C11A G63C,-1.78
15,C11G G39U C56U,-0.805
16,C11A C101A,-3.16
17,C11G G58C C97A C104A,-4.9
18,C11G C40A C53A,-0.596
19,C11G C56G G57A U96C G113U,-3.3
20,C11G C53G C62A C89A G122U,-3.13
21,C11G C80U C101A,-0.977
22,C11G C28A U112A,-1.33
23,C11A G128C,-3.97
24,C11G A41C C56U C72U G93A C123G G135U,-4.47

row,Variant,polymerase ribozyme fitness (log ratio)
1,C11G G25U,-4.49
2,C11G G25A,-4.53
3,C11G C15G G71U G93A G128U,-4.47
4,C11G A50C A75U C97A C102U,-4.52
5,C11A U30G A37C U112C,-5.59
6,C11G C70G U116A U129C,-6.8
7,C11G C28G C56G C85G,-6.05
8,C11G G122U,0.995
9,C11A C72A A91G U126G,-5.33
10,C11G G51A C53G G61U C124U U131G,-1.99
11,C11A G47A G61U A105U U126A,-5.18
12,C11A C88G,-2.99
13,C11A C56G,-1.77
14,C11G G77A U92A U129C,-4.39
15,C11G G57U G120A,1.4
16,C11G C20U A46G A83G A95G,-1.9
17,C11G A27U G47C G69U A83U,-2.78
18,C11G G17A C72U C101U,-2.99
19,C11A G47A G77C A84G G128A,-4.94
20,C11A U96G G113C U130A,-5.5
21,C11A G17C G19A G39A G69U C123G,-5.74
22,C11G U21A C49U G117C,-4.04
23,C11G C13A A16U C79U,-2.88
24,C11G A29G G61U C94G,-2.6

row,Variant,polymerase ribozyme fitness (log ratio)
1,C11A U92A,-4.36
2,C11A G42A U54A C64U U129C,-4.74
3,C11G C12G C104A U106A,-3.92
4,C11A G36U G48C C62G C115A G120C,-4.4
5,C11G G51A C53G C124U U131G,-1.71
6,C11G A37C A46C G63U C123U,-1.9
7,C11G G17U A91C G117A,-1.55
8,C11G C15A U59A C73A U125A,-1.02
9,C11G A16G G71U C101A G128U,-3.82
10,C11A G69C,-2.03
11,C11A G58C U59G U81A,-2.19
12,C11G C34U,-2.8
13,C11A C123G,1.15
14,C11A G44C G48U,-4.1
15,C11A G77U,-2.4
16,C11A G47U C56A C86A U106G,-3.84
17,C11A G42C G51C G57U C62U U78C C89U G113A G122C,-6.22
18,C11G A121G G127U,0.00144
19,C11A G107U G122A,-3.88
20,C11A U38G C56U A90U,-3.35
21,C11G G42U,-0.866
22,C11A G63C U81G,-5.33
23,C11A G45U C64A U78A A95C G113U,-7.43
24,C11G G60U U116G C124U,-3.49

row,Variant,polymerase ribozyme fitness (log ratio)
1,C11A U87G C101G,-2.62
2,C11G A46G U106G G128U,-2.63
3,C11A C56A C64U U126G,-4.75
4,C11G C64G,-6.21
5,C11G A29G C94G,-2.16
6,C11G A95U U129C,-1.01
7,C11G G61U,0.628
8,C11A G47A G69U G77U,-1.86
9,C11A U112G,-1.43
10,C11G G57A G93A U96A,-2.56
11,C11A G36A C79U U87A,-4.09
12,C11G A50G C97G,-2.97
13,C11A G45U C49U C70U U87A,-3.95
14,C11G C72G G117A,-0.843
15,C11A G45U G71C A121C U132A,-0.245
16,C11G C13A,-2.58
17,C11G A95C C114G G120A,-6.61
18,C11G A18U,-1.34
19,C11G U21A C53G C114A,0.189
20,C11G C40U,-0.213
21,C11A G60U G71C U87C U112C G117A U130C,-7.15
22,C11A G61U C102U,-3.03
23,C11G G63U C85U U87C G110A,-2.67
24,C11A C79U G120A,1.38

row,Variant,polymerase ribozyme fitness (log ratio)
1,C11A C62U G117A G122A,-0.74
2,C11G C49G C70U C88G A111U G127C,-5.65
3,C11G A29G,-1.16
4,C11G A29U,-1.95
5,C11G G57A G58A C62A G63A,-3.98
6,C11G A37C G61A,-0.00618
7,C11G G122A C124G,1.83
8,C11G G45A C53G G57U C104G C114U,-6.51
9,C11G C31A C73U,-4.73
10,C11A G120A,0.576
11,C11A U30C G47A G63A A121G U131A,-3.75
12,C11G C49U C73A G77A C102U G110U,-6.69
13,C11G A37G C40G C72A C101U C123A,0.0924
14,C11G A41U C56A C72U U92G,-1.47
15,C11G A18U A41U G57A A74U C114U G128C,-4.05
16,C11G G19A A43U,-1.81
17,C11G G19C,-2.06
18,C11G A26U,-1.77
19,C11G A83U U126G,-0.958
20,C11G C22G C53G C82U,-3.79
21,C11G C13U A37U A83C,-0.361
22,C11G G36U A43U C62U G63A C115U U125A U132A,-5.64
23,C11G C15U G25C G69C A111C A118G,-6.31
24,C11A C94U,-1.19

row,Variant,polymerase ribozyme fitness (log ratio)
1,C11G G23A,-5.25
2,C11G C13U U32C A68G,-3.2
3,C11A G52U,-2.14
4,C11A G52A,-1.58
5,C11G C40A C72U C101U C104U G135U,-0.627
6,C11G C72G A91C,-0.65
7,C11G C34U C86G A118U,-5.02
8,C11G C22U A50U C56A G57U C89U,-6.34
9,C11G G39A G120C G127C,0.971
10,C11A G71C U125G G135U,-3.28
11,C11G G71A C80G G128A,-6.67
12,C11G A27G A29U C94U,-2.53
13,C11G C12A G36C C72U C73U,-1.07
14,C11G C89A,-1.26
15,C11G G44C C86G U126A,-2.2
16,C11G A105U U112A A119G G120A G122A,-0.827
17,C11G G113U G128U,-3.42
18,C11G C115U U130A,-0.677
19,C11G C40U C49U U55G U130A U132A,-1.35
20,C11G C94U U96A,-0.725
21,C11G C22U G113U A119G,-5.79
22,C11G G17A C72A,-4.27
23,C11G G69A,-2.73

# Source: the RNAGym collection of RNA variant scans (doi:10.1073/pnas.2313332121)
